Laboratory results: US20260125455A1 (CLEVELAND CLINIC FOUNDATION, published 2026)

Columns and labels:
[1] = molecular target: T1, human complement protein C6 (human, UniProt P13671 22-934); assay: BLI (Octet), full kinetics, C6 0.16-10 nM, 1:1 fit
T1 construct: also called human C6; C6 antigen
Procedure: For two of the best performing antibodies, C601HFKC4 HuG4K (aka 3713) and C601HFKI HuG4K, a full kinetic experiment was run using seven concentrations of C6 (0.16-10 nM) and association and dissociation steps of 20 min. The datasets were processed by subtracting the no antigen controls and the data were fitted to a 1:1 binding model. Binding curves giving Req/Rₘₐₓ ratios>90% or showing poor fitting were excluded from analysis.

[2] = molecular target: T1, human complement protein C6; assay: ELISA, expression supernatant, anti-human IgG (Fab-specific) detection
Procedure: (§1) The chimeric molecules, MoC601 HuG4K and MoC601 HuG1KFab, were tested for C6 binding in the form of expression supernatants. In this experiment, the human molecules were detected with an HRP-conjugated goat anti-human kappa chain reagent, which gave relative low signals. However, the binding of both chimeric molecules to C6 was confirmed. The EC₅₀ value for MoC601 HuG4K (0.43 nM) was higher than that of the mouse antibody (0.07 nM), though this was lower than in previous experiments. A further experiment was performed to find a more suitable anti-human antibody detection reagent. MoC601 HuG4K from expression supernatant was detected with three different secondary antibodies. Both anti-human IgG Fc-specific and Fab-specific detection gave higher signals than the anti-kappa chain reagent but the Fc-specific detection yielded a very low EC₅₀ (0.03 nM).

[3] = molecular target: T1, human complement protein C6; assay: ELISA, C6-coated wells, purified antibody
[4] = molecular target: T1, human complement protein C6; assay: BLI (Octet RED384), antibody on Protein G biosensors, C6 0.27-5 nM, 1:1 fit, experiment 2
Procedure: (§2) The binding of the purified chimeric molecules, MoC601 HuG4K and MoC601 HuG1KFab, was also confirmed by ELISA, where the anti-human IgG (Fab-specific) secondary reagent was used. The control mouse antibody bound as previously (EC₅₀ 0.11 nM). The EC₅₀ for purified MoC601 HuG4K (0.27 nM) was similar to that obtained for the MoC601 HuG4K supernatant sample above. […] The EC₅₀ value for the Fab molecule (0.48 nM) was higher than for the antibody, which would be expected since the Fab is unable to bind bivalently to the antigen on the well. A C6-binding assay was also set up on the Octet RED384 instrument. […] However, MoC601 MoG1K could be stably loaded onto anti-mouse Fc (AMC) biosensors. Concentrations of the mouse and chimeric antibodies were adjusted to give similar levels of loading on to the AMC and
Protein G biosensors respectively in subsequent experiments. There was no non-specific binding of C6 protein to unloaded sensors or sensors loaded with an isotype control antibody. […] The mouse and chimeric datasets were processed by subtracting the no antigen controls and the data were fitted to a 1:1 binding model. Binding curves giving Req/Rₘₐₓ ratios>90% or showing poor fitting were excluded from analysis. A second full kinetic experiment was performed with an adjusted concentration range (six points, 0.27-5 nM) and an extended dissociation step of 20 minutes.

[5] = molecular target: T1, human complement protein C6; assay: ELISA, expression supernatant, anti-human kappa detection
Procedure: as §1

[6] = molecular target: T1, human complement protein C6; assay: C6-binding ELISA, A650 nm; sample 'C6-depleted human serum' (28 days at 37 C)
Procedure: (§3) For the serum stability assessment, samples of the purified candidate antibodies are normally incubated in mouse, human and cynomolgus serum at 37 C for 28 days and then tested in an antigen-binding ELISA. Since the anti-C6 antibodies are expected to bind to both human and cynomolgus C6 but not mouse C6, we anticipated that incubating in human or cynomolgus sera would reduce ELISA binding due to occupation of the antibody binding sites by C6 protein from the sera. Therefore, the chimeric and humanized antibodies were tested with human and mouse sera and with human sera from which the C6 protein has been depleted. […]
(§4) Binding ELISAs used Nunc Maxisorp 384-well plates, wells coated with C6, C5b,6 complex or C5 (Complement Technology Inc, TX) and goat anti-human IgG (Fab specific) peroxidase secondary antibodies (Sigma-Aldrich, A0293) for detection. For the thermal stability assay, IgG supernatants were diluted to their EC₈₀ concentration, incubated at different temperatures for 10 min and C6 binding measured by ELISA with the binding signal plotted against temperature. Kinetics of C6 binding were measured by capturing antibodies from supernatant samples using Protein G biosensors and performing a 20 min association step with 2.5 nM C6 and a 20 min dissociation step using the Octet RED96. […]

[7] = molecular target: T1, human complement protein C6; assay: BLI (Octet RED384), antibody on Protein G biosensors, C6 0.16-10 nM, 1:1 fit, experiment 1
Procedure: as §2
Protein G biosensors respectively in subsequent experiments. There was no non-specific binding of C6 protein to unloaded sensors or sensors loaded with an isotype control antibody. A full kinetic experiment was run for purified MoC601 MoG1K and MoC601 HuG4K antibodies using seven concentrations of C6 (0.16-10 nM) and association and dissociation steps of 20 and 15 minutes respectively. The mouse and chimeric datasets were processed by subtracting the no antigen controls and the data were fitted to a 1:1 binding model. […]

[8] = molecular target: T1, human complement protein C6; assay: C6-binding ELISA, A650 nm; sample 'mouse serum' (28 days at 37 C)
Procedure: as §3, §4

T1 sequence (P13671 22-934 limits assumed): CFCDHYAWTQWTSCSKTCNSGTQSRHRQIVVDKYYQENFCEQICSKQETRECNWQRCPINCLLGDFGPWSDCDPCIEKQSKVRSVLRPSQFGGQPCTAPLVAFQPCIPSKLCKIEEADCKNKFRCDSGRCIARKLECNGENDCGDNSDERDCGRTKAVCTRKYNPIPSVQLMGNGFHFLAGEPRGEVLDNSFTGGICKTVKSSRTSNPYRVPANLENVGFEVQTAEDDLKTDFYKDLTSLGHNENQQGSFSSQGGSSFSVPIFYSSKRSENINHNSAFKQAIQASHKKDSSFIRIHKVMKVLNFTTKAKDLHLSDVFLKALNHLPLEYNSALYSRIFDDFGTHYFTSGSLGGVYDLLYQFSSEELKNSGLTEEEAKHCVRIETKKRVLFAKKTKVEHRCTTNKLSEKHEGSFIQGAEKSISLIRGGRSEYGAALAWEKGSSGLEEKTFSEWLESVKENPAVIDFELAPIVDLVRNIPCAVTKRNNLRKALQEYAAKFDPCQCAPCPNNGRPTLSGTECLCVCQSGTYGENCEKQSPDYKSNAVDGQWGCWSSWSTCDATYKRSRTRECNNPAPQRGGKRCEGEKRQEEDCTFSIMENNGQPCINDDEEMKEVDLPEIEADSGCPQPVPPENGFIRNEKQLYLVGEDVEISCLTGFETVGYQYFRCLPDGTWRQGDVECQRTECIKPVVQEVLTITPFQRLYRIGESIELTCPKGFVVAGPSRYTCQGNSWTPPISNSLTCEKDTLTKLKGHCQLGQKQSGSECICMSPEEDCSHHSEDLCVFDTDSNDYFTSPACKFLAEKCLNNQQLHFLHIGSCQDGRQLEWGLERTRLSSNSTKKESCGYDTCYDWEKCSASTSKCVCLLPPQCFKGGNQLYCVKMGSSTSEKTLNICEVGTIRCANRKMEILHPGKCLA

Kd [1]	koff [1]	kon [1]	EC50 [2]	EC50 [3]	Kd [4]	kon [4]	EC50 [5]	EC50 [6]	Kd [7]	kon [7]	EC50 [8]	Binder
0.11 nM	0.00013 s⁻¹	1.19e+06 M⁻¹ s⁻¹										C601HFKC4 HuG4K (antibody, human IgG4 S228P, kappa, also called 3713; clone 3713) heavy: not shown light: QIVLTQSPATLSLSPGERATLSCRASSSVSYLHWYQQKPGQSPRLWIYDTSKRATGIPARFSGSGSGTDYTLTISSLEPEDFAVYYCQQWTSNPLTFGQGTKLEIKRTVAAPSVFIFPPSDEQLKSGTASVVCLLNNFYPREAKVQWKVDNALQSGNSQESVTEQDSKDSTYSLSSTLTLSKADYEKHKVYACEVTHQGLSSPVTKSFNRGEC
			0.3 nM	0.2 nM	0.35 nM	690000 M⁻¹ s⁻¹	0.43 nM	0.15 nM	0.36 nM	690000 M⁻¹ s⁻¹	0.19 nM	MoC601 HuG4K (chimeric C601 antibody) (antibody, human IgG4 S228P, kappa, V domains shown, also called chimeric antibody; chimeric 1C9) VH: QVQLQQSGAELVKPGASVKISCKASGYAFSDYWMNWVKQRPGKGLEWIGQIYPGDDDTNYNGKFKGKATLTADKSSSTAYMQLSSLTSEDSAVYFCAREGYYGYTYVEYFDVWGTGTTVTVSS VL: QIVLTQSPAIMSVSPGEKVTLTCSASSSVSYMHWYQQKSGTSPKRWIYDTSKLASGVPARFSGSGSGTSYSLTISSMEAEDAATYYCQQWTSNPLTFGAGTKLELRR
